Reference: patent US20180369322A1 (published 2018)
Numbered stars: 1 amine (or outer) side, 2 acyl side, 3 side chain; on linkers, the order of the positions; unused ones are H or OH. Bridge positions count the residues as written; N and C are the ends. Square brackets hold non-standard residues; d marks the D form. Primed or numbered codes have the meaning given here. Side chains are listed from the residue outwards. * marks the point of attachment. PEG24′ = polyethylene glycol unit with 24 repeats; Trp(7-aza) = N[C@@H](Cc1c[nH]c2ncccc12)C(=O)O; γGlu = O=C(O)[C@H](CCC(=O)[*:2])N[*:1]; Palmitoyl = CCCCCCCCCCCCCCCC(=O)*; NMeD = CN[C@@H](CC(=O)O)C(=O)O; Chg = N[C@H](C(=O)O)C1CCCCC1; Tle = CC(C)(C)[C@H](N)C(=O)O

Legend:
Experiment in all cases: cell-based or functional assay
[1] = target: cloned hERG potassium channel (human, UniProt Q12809 1-1159)
Sequence of cloned hERG potassium channel (Q12809 whole entry): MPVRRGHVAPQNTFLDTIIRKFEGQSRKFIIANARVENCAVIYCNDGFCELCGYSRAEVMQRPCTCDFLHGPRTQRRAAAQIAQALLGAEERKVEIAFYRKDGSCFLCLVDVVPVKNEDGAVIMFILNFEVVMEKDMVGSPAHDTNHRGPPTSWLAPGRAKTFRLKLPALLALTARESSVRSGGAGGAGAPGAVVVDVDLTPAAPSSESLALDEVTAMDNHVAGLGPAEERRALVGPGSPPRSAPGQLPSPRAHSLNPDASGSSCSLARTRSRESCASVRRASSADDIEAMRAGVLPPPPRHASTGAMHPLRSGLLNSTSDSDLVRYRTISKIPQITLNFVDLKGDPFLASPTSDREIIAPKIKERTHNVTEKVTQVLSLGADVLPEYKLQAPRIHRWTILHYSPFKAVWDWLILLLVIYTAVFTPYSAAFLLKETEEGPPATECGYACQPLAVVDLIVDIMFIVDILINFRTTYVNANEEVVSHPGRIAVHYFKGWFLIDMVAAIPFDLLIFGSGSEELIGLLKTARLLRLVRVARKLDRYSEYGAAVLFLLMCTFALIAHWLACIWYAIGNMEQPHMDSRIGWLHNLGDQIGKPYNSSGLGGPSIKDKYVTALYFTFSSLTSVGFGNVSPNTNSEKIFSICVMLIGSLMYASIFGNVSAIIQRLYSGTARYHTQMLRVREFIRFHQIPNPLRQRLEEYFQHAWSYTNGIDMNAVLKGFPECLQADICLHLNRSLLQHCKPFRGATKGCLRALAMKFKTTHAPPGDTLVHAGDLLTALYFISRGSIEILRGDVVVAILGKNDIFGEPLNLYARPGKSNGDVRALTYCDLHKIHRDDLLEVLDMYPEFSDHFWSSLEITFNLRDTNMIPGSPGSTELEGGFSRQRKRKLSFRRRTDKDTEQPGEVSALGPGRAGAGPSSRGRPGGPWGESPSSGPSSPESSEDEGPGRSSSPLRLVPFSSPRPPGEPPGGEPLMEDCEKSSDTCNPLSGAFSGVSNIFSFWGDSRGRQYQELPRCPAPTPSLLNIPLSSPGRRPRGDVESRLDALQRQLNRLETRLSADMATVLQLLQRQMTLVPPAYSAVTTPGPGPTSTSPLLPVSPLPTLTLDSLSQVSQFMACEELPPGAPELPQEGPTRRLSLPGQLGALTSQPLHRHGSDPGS

[2] = target: dog C5 (dog)
Sequence of dog C5 (dog) (P01031 whole entry): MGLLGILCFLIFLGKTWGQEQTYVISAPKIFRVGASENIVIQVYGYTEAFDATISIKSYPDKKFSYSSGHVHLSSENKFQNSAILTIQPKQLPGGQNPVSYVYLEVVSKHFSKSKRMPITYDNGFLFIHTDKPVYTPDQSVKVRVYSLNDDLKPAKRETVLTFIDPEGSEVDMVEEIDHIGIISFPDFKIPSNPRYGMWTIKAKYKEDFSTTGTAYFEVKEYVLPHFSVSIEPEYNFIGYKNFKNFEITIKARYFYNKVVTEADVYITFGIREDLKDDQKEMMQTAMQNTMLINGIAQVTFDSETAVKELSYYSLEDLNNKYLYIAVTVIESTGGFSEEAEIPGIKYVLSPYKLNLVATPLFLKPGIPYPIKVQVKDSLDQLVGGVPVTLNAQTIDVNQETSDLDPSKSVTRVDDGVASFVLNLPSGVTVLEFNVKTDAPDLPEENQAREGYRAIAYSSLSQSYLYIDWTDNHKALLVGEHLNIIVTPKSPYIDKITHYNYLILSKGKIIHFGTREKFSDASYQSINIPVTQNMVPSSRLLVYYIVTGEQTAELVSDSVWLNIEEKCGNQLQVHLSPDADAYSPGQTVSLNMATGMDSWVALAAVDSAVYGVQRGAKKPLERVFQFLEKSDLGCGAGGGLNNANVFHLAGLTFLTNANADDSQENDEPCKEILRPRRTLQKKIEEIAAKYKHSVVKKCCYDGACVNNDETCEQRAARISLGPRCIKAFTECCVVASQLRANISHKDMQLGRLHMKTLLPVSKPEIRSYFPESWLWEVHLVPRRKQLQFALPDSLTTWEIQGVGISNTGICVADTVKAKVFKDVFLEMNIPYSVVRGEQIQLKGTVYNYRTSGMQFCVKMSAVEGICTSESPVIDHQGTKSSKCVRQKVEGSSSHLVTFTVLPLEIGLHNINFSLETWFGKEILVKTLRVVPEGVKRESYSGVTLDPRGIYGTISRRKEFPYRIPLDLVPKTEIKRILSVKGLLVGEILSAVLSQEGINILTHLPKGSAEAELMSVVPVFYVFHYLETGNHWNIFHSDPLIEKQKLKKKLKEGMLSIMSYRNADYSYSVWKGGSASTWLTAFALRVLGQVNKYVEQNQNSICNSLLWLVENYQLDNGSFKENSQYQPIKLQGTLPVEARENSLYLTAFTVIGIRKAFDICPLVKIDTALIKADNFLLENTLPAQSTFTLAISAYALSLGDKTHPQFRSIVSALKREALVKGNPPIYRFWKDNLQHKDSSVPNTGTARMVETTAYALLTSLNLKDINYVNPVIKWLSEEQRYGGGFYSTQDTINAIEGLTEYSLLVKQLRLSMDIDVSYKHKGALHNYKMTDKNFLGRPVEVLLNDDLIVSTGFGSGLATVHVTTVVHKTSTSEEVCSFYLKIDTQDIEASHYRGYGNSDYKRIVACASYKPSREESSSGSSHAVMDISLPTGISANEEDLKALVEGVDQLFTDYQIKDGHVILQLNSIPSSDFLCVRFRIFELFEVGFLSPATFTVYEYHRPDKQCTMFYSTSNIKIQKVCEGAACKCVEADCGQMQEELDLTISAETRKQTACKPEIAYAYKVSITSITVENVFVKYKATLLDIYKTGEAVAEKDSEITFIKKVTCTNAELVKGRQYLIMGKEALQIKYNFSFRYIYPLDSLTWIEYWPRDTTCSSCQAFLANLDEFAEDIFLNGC

[3] = target: human C5 (human, UniProt P01031 19-1676)
Sequence of human C5 (P01031 19-1676 limits assumed): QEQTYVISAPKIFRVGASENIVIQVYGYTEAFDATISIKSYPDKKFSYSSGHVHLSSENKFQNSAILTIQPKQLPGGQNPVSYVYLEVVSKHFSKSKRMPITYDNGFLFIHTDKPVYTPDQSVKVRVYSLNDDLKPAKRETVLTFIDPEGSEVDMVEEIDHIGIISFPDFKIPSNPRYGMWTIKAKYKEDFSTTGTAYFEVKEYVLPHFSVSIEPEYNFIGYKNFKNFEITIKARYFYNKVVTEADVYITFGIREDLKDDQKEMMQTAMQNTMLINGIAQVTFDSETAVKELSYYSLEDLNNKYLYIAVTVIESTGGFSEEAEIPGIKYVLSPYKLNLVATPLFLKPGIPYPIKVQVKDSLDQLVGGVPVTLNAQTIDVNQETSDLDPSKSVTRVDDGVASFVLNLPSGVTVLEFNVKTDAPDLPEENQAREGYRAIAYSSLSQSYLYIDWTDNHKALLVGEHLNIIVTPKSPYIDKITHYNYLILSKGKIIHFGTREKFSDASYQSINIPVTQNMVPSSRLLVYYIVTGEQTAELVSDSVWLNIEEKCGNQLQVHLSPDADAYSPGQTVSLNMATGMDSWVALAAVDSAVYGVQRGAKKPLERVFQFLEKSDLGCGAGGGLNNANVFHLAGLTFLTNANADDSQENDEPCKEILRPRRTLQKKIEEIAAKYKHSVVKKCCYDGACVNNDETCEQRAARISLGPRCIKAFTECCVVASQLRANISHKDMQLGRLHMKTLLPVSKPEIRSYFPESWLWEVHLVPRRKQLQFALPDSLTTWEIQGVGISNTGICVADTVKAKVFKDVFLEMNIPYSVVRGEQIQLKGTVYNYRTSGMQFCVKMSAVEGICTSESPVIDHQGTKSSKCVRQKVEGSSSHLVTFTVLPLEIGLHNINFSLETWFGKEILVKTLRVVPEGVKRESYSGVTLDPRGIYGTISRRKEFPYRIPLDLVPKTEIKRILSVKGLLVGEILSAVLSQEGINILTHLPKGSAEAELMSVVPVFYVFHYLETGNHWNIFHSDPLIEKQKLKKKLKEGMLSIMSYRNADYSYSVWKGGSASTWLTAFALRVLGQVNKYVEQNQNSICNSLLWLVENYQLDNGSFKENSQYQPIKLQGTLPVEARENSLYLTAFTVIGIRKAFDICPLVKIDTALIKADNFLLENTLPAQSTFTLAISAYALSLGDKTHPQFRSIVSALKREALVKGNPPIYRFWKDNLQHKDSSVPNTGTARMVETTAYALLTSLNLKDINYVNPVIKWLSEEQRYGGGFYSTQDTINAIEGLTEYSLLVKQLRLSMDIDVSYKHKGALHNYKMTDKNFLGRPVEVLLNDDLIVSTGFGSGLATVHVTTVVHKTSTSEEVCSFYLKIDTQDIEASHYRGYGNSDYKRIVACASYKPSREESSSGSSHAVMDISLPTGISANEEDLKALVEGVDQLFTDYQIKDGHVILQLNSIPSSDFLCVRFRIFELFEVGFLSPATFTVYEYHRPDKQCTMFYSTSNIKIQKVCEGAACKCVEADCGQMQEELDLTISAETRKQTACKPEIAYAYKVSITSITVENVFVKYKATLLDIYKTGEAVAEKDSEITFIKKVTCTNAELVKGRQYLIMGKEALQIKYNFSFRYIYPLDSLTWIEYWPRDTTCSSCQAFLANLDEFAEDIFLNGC

[4] = target: rabbit C5 (rabbit)
Sequence of rabbit C5 (rabbit) (P01031 whole entry): as the sequence (P01031 whole entry) above

## Ac-KVERFD[NMeD][Tle]Y[Trp(7-aza)]EYP[Chg]K([PEG24′-γGlu-Palmitoyl])-OH (lactam 1-6) [R5000]
[1]
  IC50 of inhibition of hERG potassium channel current (parallel patch-clamp, HEK293 cells): > 300 µM
[2]
  IC50 of inhibition of red blood cell hemolysis, dog serum/plasma: > 4.7 µM
[3]
  IC50 of inhibition of red blood cell hemolysis, human serum/plasma: 0.0066 µM
[4]
  IC50 of inhibition of red blood cell hemolysis, rabbit serum/plasma: > 67 µM
